B1: Twister Ribozyme (parent)
chain: AACACUGCCAAUGCCGGUCCCAAGCCCGGAUAAAAGUGGAGGGGGCGG

Variants of: B1
Experiment: self-cleavage, relative activity (ratio to wild type); higher = more cleavage; co-transcriptional

Going from AACACUGCCAAUGCCGGUCCCAAGCCUGGAUCAAAGUGGAGGGGGCGG [C27U A32C] to AACACUGCGAACGCCGGUCCCAAGCCCGGAUAAAAGUGGAGGGGGCGG [C9G U12C], the self-cleavage rises from 0.755 to 0.812.

Going from AACACUGCCAAUACCGGCCCCAAGCCCGGAUAAAAGUGGAGGGGGCGG [G13A U18C] to AACACUGCCAACGCCGGUCCCAAGGCCGGAUAAAAGUGGAGGGGGCGG [U12C C25G], the self-cleavage rises from 0.129 to 0.439.

First: AACACUGCAGAUGCCGGUCCCAAGCCCGGAUAAAAGUGGAGGGGGCGG [C9A A10G]
Second: AACACUGCAAAUGCUGGUCCCAAGCCCGGAUAAAAGUGGAGGGGGCGG [C9A C15U]
The self-cleavage of the first is higher: 0.648 for the first, 0.567 for the second.

First: AACACUGCCAAUGCCGGUCCCAAGCCCGCGUAAAAGUGGAGGGGGCGG [G29C A30G]
Second: AACACUGCCAAUGCCGGUCCUAAGCCCGGAUAAAAGAGGAGGGGGCGG [C21U U37A]
The self-cleavage of the first is higher: 0.91 for the first, 0.0811 for the second.

Going from AACACUGCCUAUGCCGGUCCCAAGCCCGGAUAAAAGUGGUGGGGGCGG [A10U A40U] to AACACUGCCAAUGCCGGUCCCAAGCACGGAUAAUAGUGGAGGGGGCGG [C26A A34U], the self-cleavage rises from 0.111 to 0.177.

Going from AACACUGCGAAUGCCGGUCCCAAGCCCGGAUAAAACUGGAGGGGGCGG [C9G G36C] to AACACUGCCAAUGCCGGUCCCAAGCCCGGACAAUAGUGGAGGGGGCGG [U31C A34U], the self-cleavage rises from 0.148 to 0.739.

Compared with AACACUACUAAUGCCGGUCCCAAGCCCGGAUAAAAGUGGAGGGGGCGG [G7A C9U], AACACUGCCAAUGCCGGGCCCCAGCCCGGAUAAAAGUGGAGGGGGCGG [U18G A22C] is lower in self-cleavage: 0.0809 for the first, 0.0631 for the second.

First: AACUCUGCCAAUGCCGGUCCCAAGCCCGGAUAAAAGUGGGGGGGGCGG [A4U A40G]
Second: AACACUGCCAAUGCCGGUCCCAAGCCCGGAUAAAAUUGGAGGGGGCGC [G36U G48C]
The self-cleavage of the first is lower: 0.0581 for the first, 0.514 for the second.

First: AACACUGCCAAUGCCGGUCCCAAGACCGGAUAAAAGUGGAGGGGGCUG [C25A G47U]
Second: AACACUACCAAUGCCGGUCCCAAGCCCGUAUAAAAGUGGAGGGGGCGG [G7A G29U]
The self-cleavage of the first is lower: 0.0657 for the first, 0.339 for the second.

First: AACACUGCCAAUGCCCGUCCCAAGCCCGGUUAAAAGUGGAGGGGGCGG [G16C A30U]
Second: AACACUGCCAAUGUCGGUCCCAAGCCCGGAUGAAAGUGGAGGGGGCGG [C14U A32G]
The self-cleavage of the first is lower: 0.741 for the first, 1.07 for the second.

Compared with AAGACUGCCAAUGCCGUUCCCAAGCCCGGAUAAAAGUGGAGGGGGCGG [C3G G17U], AACACUGCCAAUGCCGGUCCCAAGCCCAGAUACAAGUGGAGGGGGCGG [G28A A33C] is higher in self-cleavage: 0.0757 for the first, 0.873 for the second.

Compared with AACACUGCCAAUGCCGGUCUCAAGCCCGGAUAAAAGUGGACGGGGCGG [C20U G41C], AACACUGCCAAUGCCGGUCCCAAGCCCGGAUAAAAGUGGAGGGGUAGG [G45U C46A] is higher in self-cleavage: 0.133 for the first, 0.595 for the second.

Going from AACACUGCCAAUGCCGGUCCCAAGCGCGGAUGAAAGUGGAGGGGGCGG [C26G A32G] to AUCACUGCCAAUGCCGGUCCCAAGCCCGGAUAAAAGUGGAGGGUGCGG [A2U G44U], the self-cleavage rises from 0.316 to 0.429.

Compared with AACGCUGCCAAUGCCGGUCCCAAGCCCGGAUAUAAGUGGAGGGGGCGG [A4G A33U], AACACUGCCAAUGCCCGUCCCAAGCCCAGAUAAAAGUGGAGGGGGCGG [G16C G28A] is lower in self-cleavage: 0.858 for the first, 0.194 for the second.

First: AACACUCCCAAUGCCGGUCCCAAGCCCGGAUAAAAGUGGACGGGGCGG [G7C G41C]
Second: AACACUGCCAAUGCCGGUCCCAAGCCCGGAUAACAGUGGAGGGGGCGU [A34C G48U]
The self-cleavage of the first is lower: 0.0623 for the first, 0.21 for the second.

Going from AACACUGCCAAUGCCGGUCCCAAGCCCGGAUAAACGUGGAGGGGACGG [A35C G45A] to AACACUGCCAAUGCCGGUCCCAAGCCUGGAUAAAAGUGGCGGGGGCGG [C27U A40C], the self-cleavage falls from 0.807 to 0.159.

Going from AACACUGCCAAUGCCGGUCCCAAGCCCAGAUAAUAGUGGAGGGGGCGG [G28A A34U] to GACACUGCCGAUGCCGGUCCCAAGCCCGGAUAAAAGUGGAGGGGGCGG [A1G A10G], the self-cleavage falls from 0.497 to 0.438.

Going from AACACUGCCAAUUCCGGUCCCAAGCCCGGAUAAAAGUGUAGGGGGCGG [G13U G39U] to AACACUGCCAAUGCCUGUCCUAAGCCCGGAUAAAAGUGGAGGGGGCGG [G16U C21U], the self-cleavage rises from 0.0998 to 0.105.

Going from AACACUGCCAAUGCCGGUCCCAAGCCCGGAUAAACGUGGAGGGGGCGA [A35C G48A] to AACGCUGCCAAUGCCGGUCCCAAGCCCGGAUAAAAGUGCAGGGGGCGG [A4G G39C], the self-cleavage falls from 0.917 to 0.115.

Compared with AACACUGCCAAUGCCGGUCCCAUGCCCGGAUAAAACUGGAGGGGGCGG [A23U G36C], AACAGUGCCAAUGCCGGUCCCAAGCCCGGAUGAAAGUGGAGGGGGCGG [C5G A32G] is higher in self-cleavage: 0.12 for the first, 0.749 for the second.

Compared with AAAACAGCCAAUGCCGGUCCCAAGCCCGGAUAAAAGUGGAGGGGGCGG [C3A U6A], AACACUGCCAAUGCCGGGCCCAAGCCCGGAUAAAAGUGGAGGGGCCGG [U18G G45C] is lower in self-cleavage: 0.0998 for the first, 0.0995 for the second.

Compared with AACACUGCCAAUGCCGGUCCCAAGCACGGAUAAAAGGGGAGGGGGCGG [C26A U37G], AACACUGCCAAUGCCGCUCCCAAACCCGGAUAAAAGUGGAGGGGGCGG [G17C G24A] is lower in self-cleavage: 0.17 for the first, 0.0848 for the second.

Compared with AACACUGCCAAUGCCGGUCCCAAGCCCGGAUAACAGUAGAGGGGGCGG [A34C G38A], CACACUGCCAAUGCCGGUCCCAAGUCCGGAUAAAAGUGGAGGGGGCGG [A1C C25U] is lower in self-cleavage: 0.232 for the first, 0.192 for the second.

First: AACACUGCCAAUGCCGGUCCCCAGCCCGGAUAAAAGUGGAGGGGGGGG [A22C C46G]
Second: AACACUGCCAAUGCCGGUCCCAAGCCCGGAUAAAACUGGCGGGGGCGG [G36C A40C]
The self-cleavage of the first is higher: 0.869 for the first, 0.15 for the second.

Going from AACACUGCCAAUGCCGGUCCCAAGCCCGGGUAAAAGUGGAGAGGGCGG [A30G G42A] to AACACUCCCAAUGCCGGUCCCAAGCCCGAAUAAAAGUGGAGGGGGCGG [G7C G29A], the self-cleavage falls from 0.413 to 0.0857.

First: AACACUGCCAAUGCCGGUCCCAAGCCCGGAUAAAGGUGGAGGUGGCGG [A35G G43U]
Second: AACACUGCCAAUGCCCGUCCCAAGCCCGGAGAAAAGUGGAGGGGGCGG [G16C U31G]
The self-cleavage of the first is lower: 0.13 for the first, 0.663 for the second.

First: AACACUGCCAAUGCUGGUCCCAAGCCCGGAUAAAAGUGGAGGGGCCGG [C15U G45C]
Second: AACACUGCCAAUGCCGGACCCAAGCCCGGAUAAAAGUGGUGGGGGCGG [U18A A40U]
The self-cleavage of the first is higher: 0.64 for the first, 0.147 for the second.

From the RNAGym collection of RNA variant scans (doi:10.7554/elife.80360)
